Binding data for 1 sequence are collected here from article PMC6307784.

The target in this series is T1, NhaR-His6 (Escherichia coli) (UniProt P0A9G2).
T1 sequence: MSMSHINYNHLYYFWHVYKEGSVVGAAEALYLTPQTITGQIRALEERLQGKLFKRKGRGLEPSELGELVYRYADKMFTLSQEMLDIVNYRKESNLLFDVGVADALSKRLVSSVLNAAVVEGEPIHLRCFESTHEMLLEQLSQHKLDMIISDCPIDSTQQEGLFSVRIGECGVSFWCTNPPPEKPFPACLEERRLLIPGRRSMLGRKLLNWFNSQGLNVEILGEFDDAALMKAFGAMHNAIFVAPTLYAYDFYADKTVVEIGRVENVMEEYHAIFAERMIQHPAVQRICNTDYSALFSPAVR
Briefly: EMSA. As to conditions: LightShift Chemiluminescent EMSA Kit (Pierce) as per manufacturer, DNA 1 fM as printed, 5% PAGE; buffer, salt, pH and temperature not stated.

Consider “TCGACGAAGATAGAATCGTCTTTTTCGCGAAGTCTTACAAGGCGCTTACAGACAATGCCTTAAGGAAAATTTCATATGAAAGTTAAGAATTAACAATCAACATTTTGATTTTAAATGAAAATAACGATTCTTATCTTTTTAAGTATTCGCTTATTTCCTGGCGATCTCCTACAGAGTCTGTAAGAGATCTCTCACAACCAGATGGGGTATTTGGATTA (double strand) [csrB promoter 220 bp]”, for which the binding result is reported as “no binding”.
